Laboratory results published in patent publication US20260116987A1 (Gilead, published 2026).

T1: Human CCR4 expressed on CHO-S cells (human, UniProt P51679 1-360)
T1 construct: whole, on cells; also called CCR4-expressing CHO-S cells
T1 sequence (looked up): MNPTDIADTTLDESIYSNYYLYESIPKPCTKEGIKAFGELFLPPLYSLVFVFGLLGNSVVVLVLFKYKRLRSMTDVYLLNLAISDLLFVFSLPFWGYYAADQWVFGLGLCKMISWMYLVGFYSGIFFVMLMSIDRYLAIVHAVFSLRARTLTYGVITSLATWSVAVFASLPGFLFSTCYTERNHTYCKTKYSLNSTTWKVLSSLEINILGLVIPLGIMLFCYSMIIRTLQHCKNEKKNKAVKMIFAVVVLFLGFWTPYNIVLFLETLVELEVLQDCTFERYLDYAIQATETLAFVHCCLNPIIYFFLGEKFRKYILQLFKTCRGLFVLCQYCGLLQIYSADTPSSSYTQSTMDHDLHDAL


Tests used:
[1] = molecular target: T1, Human CCR4 expressed on CHO-S cells; experiment: flow cytometry (PE-A), human CCR4-expressing CHO-S cells against parental CHO-S cells; antibody concentration not given
[2] = molecular target: CCR8-NT.MBP (CCR8 N-terminus peptide aa 1-35 fused with maltose binding protein); experiment: ForteBio Octet, antibody captured on AHC biosensors, CCR8-NT.MBP as analyte

Row | Binder | binding result [1] | Octet Response (nm) [2]
1 | 19-O07 (mouse hybridoma antibody) (antibody, human IgG1, also called 19-007) heavy: EVQLQQSVAELVRPGASVKLSCTASGFNIKNTQMHWVKQRPEQGLEWIGRIDPANGNTKYAPKFQGKATITGDTSSNTAYLQLSSLTSEDTAIYYCARFDYYYGSGDYAMDYWGQGTSVTVSSTTTAPSVYPLVPGCSDTSGSSVTLGCLVKGYFPEPVTVKWNYGALSSGVRTVSSVLQSGFYSLSSLVTVPSSTWPSQTVICNVAHPASKTELIKRIEPRIPKPSTPPGSSCPPGNILGGPSVFIFPPKPKDALMISLTPKVTCVVVDVSEDDPDVHVSWFVDNKEVHTAWTQPREAQYNSTFRVVSALPIQHQDWMRGKEFKCKVNNKALPAPIERTISKPKGRAQTPQVYTIPPPREQMSKKKVSLTCLVTNFFSEAISVEWERNGELEQDYKNTPPILDSDGTYFLYSKLTVDTDSWLQGEIFTCSVVHEALHNHHTQKNLSRSP light: not shown | no binding | –
2 | 1-K16 (mouse hybridoma antibody) (antibody, mouse IgG1, kappa) heavy: EVQLVETGGGLVQPKGSLKLSCAASGFTFNINAMNWVRQAPGKGLEWVARIRSKSNNYATYYADSVKDRFTISRDDSQSMLYLQMNNLKTEDTAMYYCVRGGYGSSPYDMDYWGQGTSVTVSSAKTTPPSVYPLAPGSAAQTNSMVTLGCLVKGYFPEPVTVTWNSGSLSSGVHTFPAVLESDLYTLSSSVTVPSSPRPSETVTCNVAHPASSTKVDKKIVPRDCGCKPCICTVPEVSSVFIFPPKPKDVLTITLTPKVTCVVVDISKDDPEVQFSWFVDDVEVHTAQTQPREEQFNSTFRSVSELPIMHQDWLNGKEFKCRVNSAAFPAPIEKTISKTKGRPKAPQVYTIPPPKEQMAKDKVSLTCMITDFFPEDITVEWQWNGQPAENYKNTQPIMNTNGSYFVYSKLNVQKSNWEAGNTFTCSVLHEGLHNHHTEKSLSHSPG light: DIVMTQAAPSVPVTPGESVSISCRSSKSLLHSNGNTYLYWFLQRPGQSPQLLIYRMSNLASGVPDRFSGSGSGTAFTLRISRVEAEDVGVYYCMQHLEYPFTFGAGTKLELKRADAAPTVSIFPPSSEQLTSGGASVVCFLNNFYPKDINVKWKIDGSERQNGVLNSWTDQDSKDSTYSMSSTLTLTKDEYERHNSYTCEATHKTSTSPIVKSFNRNEC | no binding | –
3 | 1-K17 (mouse hybridoma antibody) (antibody, mouse IgG1, kappa) heavy: QVQLQQPGAELVKPGASVKMSCKASGYTFTSYNMHWVKQTPGQGLEWIGAIYPGNGDTSYNQKFKGKATLTADKSSSTAYMHLSSLTSEDSAVYYCARKGGTPFAYWGQGTLLTVSAAKTTPPSVYPLAPGSAAQTNSMVTLGCLVKGYFPEPVTVTWNSGSLSSGVHTFPAVLESDLYTLSSSVTVPSSPRPSETVTCNVAHPASSTKVDKKIVPRDCGCKPCICTVPEVSSVFIFPPKPKDVLTITLTPKVTCVVVDISKDDPEVQFSWFVDDVEVHTAQTQPREEQFNSTFRSVSELPIMHQDWLNGKEFKCRVNSAAFPAPIEKTISKTKGRPKAPQVYTIPPPKEQMAKDKVSLTCMITDFFPEDITVEWQWNGQPAENYKNTQPIMNTNGSYFVYSKLNVQKSNWEAGNTFTCSVLHEGLHNHHTEKSLSHSPG light: DVVMTQTPLSLPVSLGDQASISCRSSQSLVHSNGNTYLYWYLQKPGQSPKLLIYKVSNRFSGVPDRFSGSGSGTDFTLKISRVEAEDLGVYFCSQSTHVPYTFGGGTKLEIKRADAAPTVSIFPPSSEQLTSGGASVVCFLNNFYPKDINVKWKIDGSERQNGVLNSWTDQDSKDSTYSMSSTLTLTKDEYERHNSYTCEATHKTSTSPIVKSFNRNEC | no binding | –
4 | 7B16-H3C4.001 (CDR H3 combo mutant of 7-B16) (antibody, V domains shown) VH: EVQLVESGGGLVQPKGSLKLSCAASGFTFNTYAMNWVRQAPGKGLEWVARIRSKSNNYATYYADSVKDRFTISRDDSQSMLYLQMNNLKTEDTAMYYCARGLLRARFFDAWGAGTTVTVSS VL: DIVMTQAEPSVPVTPGESISISCRSSKSLLHSNGNTYLYWFLQRPGQSPQLLIYRMSNLASGVPDRFSGSGSGTAFTLRISRVEAEDVGVYYCMQHLEYPFTFGGGTKLEIKR | – | 0.404 nm
5 | 7B16-L2.001 (CDR L2 swapped mutant of 7-B16) (antibody, V domains shown, also called CDR swapped variant L2) VH: EVQLVESGGGLVQPKGSLKLSCAASGFTFNTYAMNWVRQAPGKGLEWVARIRSKSNNYATYYADSVKDRFTISRDDSQSMLYLQMNNLKTEDTAMYYCVRGLLRYRFFDVWGAGTTVTVSS VL: DIVMTQAEPSVPVTPGESISISCRSSKSLLHSNGNTYLYWFLQRPGQSPQLLIYLGSNRASGVPDRFSGSGSGTAFTLRISRVEAEDVGVYYCMQHLEYPFTFGGGTKLEIKR | – | 0.205 nm
6 | 6-B09 (mouse hybridoma antibody) (antibody, mouse IgG2a, kappa) heavy: QVQLKESGPGLVAPSQSLSITCTVSGFSLARYDISWIRQPPGKGLEWLGVIWTGGGTNYNSAFMSRLSISKDNSKSQVFLKMNGLQTDDTAIYYCVSIRYDETYWGQGTLVTVSAAKTTAPSVYPLAPVCGDTTGSSVTLGCLVKGYFPEPVTLTWNSGSLSSGVHTFPAVLQSDLYTLSSSVTVTSSTWPSQSITCNVAHPASSTKVDKKIEPRGPTIKPCPPCKCPAPNLLGGPSVFIFPPKIKDVLMISLSPIVTCVVVDVSEDDPDVQISWFVNNVEVHTAQTQTHREDYNSTLRVVSALPIQHQDWMSGKEFKCKVNNKDLPAPIERTISKPKGSVRAPQVYVLPPPEEEMTKKQVTLTCMVTDFMPEDIYVEWTNNGKTELNYKNTEPVLDSDGSYFMYSKLRVEKKNWVERNSYSCSVVHEGLHNHHTTKSFSRTPG light: QIVLTQSPAIMSASPGEKVTITCSASSSVIYMHWFQQKPGTSPKLWIYATSNLASGVPARFSGSGSGTSYSLTISRMEAEDAATYYCQQRSSYPLTFGAGTKLELKRADAAPTVSIFPPSSEQLTSGGASVVCFLNNFYPKDINVKWKIDGSERQNGVLNSWTDQDSKDSTYSMSSTLTLTKDEYERHNSYTCEATHKTSTSPIVKSFNRNEC | no binding | –
7 | 13-E16 (mouse hybridoma antibody) (antibody, mouse IgG2a, kappa) heavy: EVQLVETGGGLVQPKGSLKLSCAASGFTFSTNAMNWVRQAPGKGLEWIARIRSKSNNYATHYADSVKDRFTISRDDSQSILHLQMNNLKNEDTAMYYCVRDSHYYVSTYVGLAWFAYWGQGTLVTVSAAKTTAPSVYPLAPVCGDTTGSSVTLGCLVKGYFPEPVTLTWNSGSLSSGVHTFPAVLQSDLYTLSSSVTVTSSTWPSQSITCNVAHPASSTKVDKKIEPRGPTIKPCPPCKCPAPNLLGGPSVFIFPPKIKDVLMISLSPIVTCVVVDVSEDDPDVQISWFVNNVEVHTAQTQTHREDYNSTLRVVSALPIQHQDWMSGKEFKCKVNNKDLPAPIERTISKPKGSVRAPQVYVLPPPEEEMTKKQVTLTCMVTDFMPEDIYVEWTNNGKTELNYKNTEPVLDSDGSYFMYSKLRVEKKNWVERNSYSCSVVHEGLHNHHTTKSFSRTPG light: QIVLTQSPAIMSASPGEKVTITCSASSSVSYMHWFQQKPGTSPKLWIYSTSNLASGVPARFSGSGSGTSYFLTISRMEAEDAATYYCQQRSSYPYTFGGGTKLERKRADAAPTVSIFPPSSEQLTSGGASVVCFLNNFYPKDINVKWKIDGSERQNGVLNSWTDQDSKDSTYSMSSTLTLTKDEYERHNSYTCEATHKTSTSPIVKSFNRNEC | no binding | –
